The data set is described as follows: self-splicing fitness, log relative to wild type (ln ratio); higher = more splicing; Tetrahymena group I intron in knt gene, E. coli kanamycin selection, DiMSum; sequences stand for … in CUCUCU…GGAGGGAAAAGUUAUCAGGCAUGCACCUGGUAGCUAGUCUUUAAACCAAUAGAUUGCAUCGGUUUAAAAGGCAAGACCGUCAAAUUGCGGGAAAGGGGUCAACAGCCGUUCAGUACCAAGUCUCAGGGGAAACUUUGAGAUGGCCUUGCAAAGGGUAUGGUAAUAAGCUGACGGACAUGGUCCUAACCACGCAGCCAAGUCCUAAGUCAACAGAUCUUCUGUUGAUAUGGAUGCAGUUCACAGACUAAAUGUCGGUCGGGGAAGAUGUAUUCUUCUCAUAAGAUAUAGUCGGACCUCUCCUUAAUGGGAGCUAGCGGAUGAAGUGAUGCAACACUGGAGCCGCUGGGAACUAAUUUGUAUGCGAAAGUAUAUUGAUUAGUUUUGGAGUACUCGUGGUCG
In outline: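 Six replicate transformations of E. coli BL21(DE3) with a pET-22b(+) library were grown overnight at 37°C or 30°C. The library randomised all eight P1ex-region intron nucleotides, the intron lying in the knt kanamycin-resistance gene, and plates were LB agar with or without 25 μg/mL kanamycin plus 100 μg/mL carbenicillin, 50 μM IPTG and 0.2% rhamnose. Pooled colonies were amplicon-sequenced on an Illumina HiSeq 2500, and fitness is the DiMSum error-weighted combination of wild-type-normalised replicate fold changes, kanamycin versus none.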

± gives the uncertainty stated by the source.

As to CCACAGCAAUAUUACGCUGA, the “self-splicing fitness (ln)” value is -2.51 ± 0.12 (30 °C) and -3.16 ± 0.24 (37 °C).

For the sequence CCACAGCAAUAUUACGGCCA, the “self-splicing fitness (ln)” value by setting is: (30 °C) -3.79 ± 0.29; (37 °C) -2.75 ± 0.27.

For CCACAGCAAUAUUACGGCGA, the “self-splicing fitness (ln)” value reads like this: (30 °C) -3.36 ± 0.18; (37 °C) -1.63 ± 0.13.

CCACAGCAAUAUUACGGCUA: the “self-splicing fitness (ln)” value was -3.88 ± 0.16 (30 °C) and -2.89 ± 0.15 (37 °C).

On to CCACAGCAAUAUUACGGGCU, for which the “self-splicing fitness (ln)” value is, setting by setting: (30 °C) -4.83 ± 0.27; (37 °C) -3.07 ± 0.18.

For CCACAGCAAUAUUACGGGGG, the “self-splicing fitness (ln)” value (30 °C) was -2.71 ± 0.093 and the “self-splicing fitness (ln)” value (37 °C) is -2.4 ± 0.16.

Consider CCACAGCAAUAUUACGUCAC, for which the “self-splicing fitness (ln)” value is -3.34 ± 0.15 (30 °C) and -2.86 ± 0.22 (37 °C).

Consider CCACAGCAAUAUUACGUCGC, for which the “self-splicing fitness (ln)” value is, setting by setting: (30 °C) -3.63 ± 0.17; (37 °C) -3.36 ± 0.22.

Take CCACAGCAAUAUUACGUGAA: the “self-splicing fitness (ln)” value was -2.7 ± 0.072 (30 °C) and -1.01 ± 0.082 (37 °C).

Consider CCACAGCAAUAUUACGUGAU, for which the “self-splicing fitness (ln)” value reads like this: (30 °C) -3.51 ± 0.18; (37 °C) -1.98 ± 0.12.

With CCACAGCAAUAUUACGUUGC, the “self-splicing fitness (ln)” value is -3.44 ± 0.13 (30 °C) and -2.73 ± 0.14 (37 °C).

For CCACAGCAAUAUUACGUUGU, the “self-splicing fitness (ln)” value is -2.37 ± 0.076 (30 °C) and -2.83 ± 0.13 (37 °C).

Turning to CCAGAGCAAUAUUACGAAAU, the “self-splicing fitness (ln)” value (30 °C) is -3.47 ± 0.23 and the “self-splicing fitness (ln)” value (37 °C) is -2.93 ± 0.25.

On to CCAGAGCAAUAUUACGACAA, for which the “self-splicing fitness (ln)” value (37 °C) was -2.03 ± 0.45.

Consider CCAGAGCAAUAUUACGACAC, for which the “self-splicing fitness (ln)” value (30 °C) was -1.29 ± 0.22.

As for CCAGAGCAAUAUUACGACAG, the “self-splicing fitness (ln)” value by setting is: (30 °C) -0.807 ± 0.094; (37 °C) -0.408 ± 0.15.

Regarding CCAGAGCAAUAUUACGACGU, the “self-splicing fitness (ln)” value by setting is: (30 °C) -3.74 ± 0.27; (37 °C) -3.28 ± 0.47.

For the sequence CCAGAGCAAUAUUACGAGAU, the “self-splicing fitness (ln)” value runs as follows: (30 °C) -4.57 ± 0.2; (37 °C) -3.15 ± 0.16.

With CCAGAGCAAUAUUACGAUAG, the “self-splicing fitness (ln)” value (30 °C) is -1.42 ± 0.082 and the “self-splicing fitness (ln)” value (37 °C) was -1 ± 0.12.

As for CCAGAGCAAUAUUACGCAUU, the “self-splicing fitness (ln)” value by setting is: (30 °C) -3.53 ± 0.33; (37 °C) -2.22 ± 0.2.

As for CCAGAGCAAUAUUACGCUAC, for the setting “37 °C”, the “self-splicing fitness (ln)” value was -1.72 ± 0.33.

Turning to CCAGAGCAAUAUUACGGAAU, the “self-splicing fitness (ln)” value was -3.42 ± 0.26 (30 °C) and -2.52 ± 0.17 (37 °C).

In the case of CCAGAGCAAUAUUACGGAGG, the “self-splicing fitness (ln)” value is -2.49 ± 0.18 (30 °C) and -1.87 ± 0.24 (37 °C).

Take CCAGAGCAAUAUUACGGAUA: the “self-splicing fitness (ln)” value is, setting by setting: (30 °C) -3.52 ± 0.22; (37 °C) -1.91 ± 0.16.

With CCAGAGCAAUAUUACGGGGC, the “self-splicing fitness (ln)” value (30 °C) is -3.91 ± 0.24 and the “self-splicing fitness (ln)” value (37 °C) was -2.8 ± 0.21.

On to CCAGAGCAAUAUUACGGGGG, for which the “self-splicing fitness (ln)” value (30 °C) was -3.72 ± 0.46 and the “self-splicing fitness (ln)” value (37 °C) was -2.44 ± 0.31.

With CCAGAGCAAUAUUACGGUGG, the “self-splicing fitness (ln)” value is, setting by setting: (30 °C) -3.31 ± 0.17; (37 °C) -3.31 ± 0.24.

Turning to CCAGAGCAAUAUUACGUAUA, the “self-splicing fitness (ln)” value (37 °C) is -2.35 ± 0.29.

For the sequence CCAGAGCAAUAUUACGUCUA, the “self-splicing fitness (ln)” value (30 °C) is -2.37 ± 0.19 and the “self-splicing fitness (ln)” value (37 °C) was -2.23 ± 0.24.

CCAGAGCAAUAUUACGUGCG: the “self-splicing fitness (ln)” value was -1.59 ± 0.077 (30 °C) and -0.888 ± 0.097 (37 °C).

On to CCAGAGCAAUAUUACGUGUG, for which the “self-splicing fitness (ln)” value is -1.69 ± 0.091 (30 °C) and -1.54 ± 0.097 (37 °C).

As to CCAGAGCAAUAUUACGUUCU, the “self-splicing fitness (ln)” value was -3.71 ± 0.31 (30 °C) and -1.84 ± 0.31 (37 °C).

On to CCAGAGCAAUAUUACGUUGC, for which the “self-splicing fitness (ln)” value is, setting by setting: (30 °C) -4.54 ± 0.37; (37 °C) -2.11 ± 0.18.

As to CCAUAGCAAUAUUACGAAGG, the “self-splicing fitness (ln)” value (30 °C) is -3.26 ± 0.22 and the “self-splicing fitness (ln)” value (37 °C) was -2.87 ± 0.34.

As for CCAUAGCAAUAUUACGACUG, the “self-splicing fitness (ln)” value was -0.667 ± 0.071 (30 °C) and -0.0816 ± 0.087 (37 °C).

As to CCAUAGCAAUAUUACGAGGA, the “self-splicing fitness (ln)” value is, setting by setting: (30 °C) -2.97 ± 0.25; (37 °C) -2.05 ± 0.25.

Consider CCAUAGCAAUAUUACGAGUA, for which the “self-splicing fitness (ln)” value is -3.41 ± 0.32 (30 °C) and -2.06 ± 0.19 (37 °C).

In the case of CCAUAGCAAUAUUACGAUCA, the “self-splicing fitness (ln)” value (30 °C) is -2.94 ± 0.18 and the “self-splicing fitness (ln)” value (37 °C) was -3.23 ± 0.29.

With CCAUAGCAAUAUUACGAUUU, the “self-splicing fitness (ln)” value runs as follows: (30 °C) -3.31 ± 0.2; (37 °C) -2.37 ± 0.23.

For the sequence CCAUAGCAAUAUUACGCAUA, the “self-splicing fitness (ln)” value is -3.76 ± 0.26 (30 °C) and -2.72 ± 0.29 (37 °C).

Regarding CCAUAGCAAUAUUACGCCGC, the “self-splicing fitness (ln)” value (30 °C) was -1.47 ± 0.21.

As for CCAUAGCAAUAUUACGCGCG, the “self-splicing fitness (ln)” value runs as follows: (30 °C) -0.974 ± 0.091; (37 °C) -0.0324 ± 0.1.

In the case of CCAUAGCAAUAUUACGCGGU, the “self-splicing fitness (ln)” value runs as follows: (30 °C) -3.9 ± 0.23; (37 °C) -2.5 ± 0.26.

In the case of CCAUAGCAAUAUUACGCGUG, the “self-splicing fitness (ln)” value runs as follows: (30 °C) -2.23 ± 0.095; (37 °C) -0.856 ± 0.085.

Consider CCAUAGCAAUAUUACGCUCG, for which the “self-splicing fitness (ln)” value (30 °C) was -1.69 ± 0.1 and the “self-splicing fitness (ln)” value (37 °C) was -0.407 ± 0.13.

On to CCAUAGCAAUAUUACGCUGU, for which the “self-splicing fitness (ln)” value runs as follows: (30 °C) -4.23 ± 0.39; (37 °C) -2.54 ± 0.29.

CCAUAGCAAUAUUACGGAGA: the “self-splicing fitness (ln)” value by setting is: (30 °C) -4.12 ± 0.28; (37 °C) -3.35 ± 0.29.

For the sequence CCAUAGCAAUAUUACGGAUA, the “self-splicing fitness (ln)” value by setting is: (30 °C) -2.94 ± 0.21; (37 °C) -1.81 ± 0.21.

Take CCAUAGCAAUAUUACGGCAU: the “self-splicing fitness (ln)” value was -4.02 ± 0.24 (30 °C) and -1.78 ± 0.2 (37 °C).

As for CCAUAGCAAUAUUACGGGAG, the “self-splicing fitness (ln)” value was -2.96 ± 0.15 (30 °C) and -2.89 ± 0.25 (37 °C).

Regarding CCAUAGCAAUAUUACGGUCU, the “self-splicing fitness (ln)” value is -3.96 ± 0.33 (30 °C) and -2.53 ± 0.28 (37 °C).

As to CCAUAGCAAUAUUACGUACU, the “self-splicing fitness (ln)” value reads like this: (30 °C) -4.18 ± 0.29; (37 °C) -2.3 ± 0.18.

On to CCAUAGCAAUAUUACGUAGA, for which the “self-splicing fitness (ln)” value runs as follows: (30 °C) -3.86 ± 0.17; (37 °C) -2.53 ± 0.16.

As for CCAUAGCAAUAUUACGUCAC, under “30 °C”, the “self-splicing fitness (ln)” value is -3.48 ± 0.28.

For CCAUAGCAAUAUUACGUGAG, the “self-splicing fitness (ln)” value reads like this: (30 °C) -0.355 ± 0.045; (37 °C) 0.00486 ± 0.066.

Take CCAUAGCAAUAUUACGUGCG: the “self-splicing fitness (ln)” value reads like this: (30 °C) -2.49 ± 0.15; (37 °C) -0.772 ± 0.15.

Take CCAUAGCAAUAUUACGUUAU: the “self-splicing fitness (ln)” value runs as follows: (30 °C) -3.34 ± 0.14; (37 °C) -3.31 ± 0.21.

On to CCAUAGCAAUAUUACGUUUA, for which the “self-splicing fitness (ln)” value runs as follows: (30 °C) -3.25 ± 0.23; (37 °C) -2.68 ± 0.25.

As to CCCAAGCAAUAUUACGACAG, the “self-splicing fitness (ln)” value runs as follows: (30 °C) -4.22 ± 0.15; (37 °C) -2.39 ± 0.12.

As for CCCAAGCAAUAUUACGACUA, the “self-splicing fitness (ln)” value was -2.52 ± 0.17 (30 °C) and -2.31 ± 0.18 (37 °C).

Consider CCCAAGCAAUAUUACGAGGA, for which the “self-splicing fitness (ln)” value by setting is: (30 °C) -1.42 ± 0.078; (37 °C) -0.592 ± 0.074.

CCCAAGCAAUAUUACGAUAA: the “self-splicing fitness (ln)” value reads like this: (30 °C) -3.19 ± 0.14; (37 °C) -3.49 ± 0.2.

For the origin of these results see the supplement of paper PMC7877785.
